Data as given in patent US20210179715A1 (published 2021).
Where two headings read alike, the source gives them in different places. One block for each binder: values may come before it.

Tests used:
human LY6G6D-Fc [1] = biological target: T1, human LY6G6D-Fc (UniProt O95868 20-104); test: BIAcore; 37 C
T1 chain: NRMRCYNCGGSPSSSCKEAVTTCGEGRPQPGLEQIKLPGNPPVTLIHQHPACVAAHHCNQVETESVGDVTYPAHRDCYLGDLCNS

human LY6G6D-Fc [2] = biological target: T1, human LY6G6D-Fc; test: BIAcore; 37 C
human Ly6G6D polypeptide = biological target: T2, human Ly6G6D polypeptide (UniProt O95868 20-104); test: BIAcore
T2 chain: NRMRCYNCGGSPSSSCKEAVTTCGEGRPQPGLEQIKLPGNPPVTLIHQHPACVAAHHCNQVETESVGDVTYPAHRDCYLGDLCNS

Chimeric 1G4 = test: Biacore
SNA = test: BIAcore
ANT = test: BIAcore
QNV = test: BIAcore
NNA = test: BIAcore
NNV = test: BIAcore
SNT = test: BIAcore
Parental NNT = test: BIAcore
GNT = test: BIAcore
QNT = test: BIAcore
SNV = test: BIAcore
SA = test: BIAcore
SS = test: BIAcore
IS = test: BIAcore
[3] = biological target: hu.20A12.IA.QNV.H12(V3-23).L2(K1-5); test: BIAcore; 37 C
[4] = biological target: hu.20A12.IA.SNA.H12(V3-23).L2(K1-5); test: BIAcore; 37 C
[5] = biological target: hu.20A12.IA.GNT.H12(V3-23).L2(K1-5); test: BIAcore; 37 C
4H7 = test: BIAcore; 37 C

B2: 1G4 Fab (Fab, V domains shown)
VH: EVQLVQSGAEVKKPGASVKVSCKASGYTFTTYVMHWVRQAPGQGLEWMGYINPYNDGTKYNEKFKGRVTMTRDTSISTAYMELSRLRSDDTAVYYCGRRNFDYWGQGTLVTVSS
VL: DIVMTQSPDSLAVSLGERATINCKSSQSLLLSGNQENYLAWHQQKPGQPPKTLITWASTRISGVPDRFSGSGSGTDFTLTISSLQAEDVAVYYCQQSYSAPYTFGGGTKVEIKR
- Kd (human LY6G6D-Fc [2]): 1.45 nM

B3: hu6E10.K3-20.V3-53 (L1H1) (antibody, V domains shown)
VH: EQQLVESGGGLIQPGGSLRLSCAVSGLSLSTNSINWVRQAPGKGLEWIGYIYHGDGIADYASWAKGRFTISKDSSKNTVYLQMNSLRAEDTAVYFCASGAGYSLFTLWGPGTLVTVSS
VL: EAVLTQSPGTLSLSPGERATLSCQSSESVWHNNWLAWFQQKPGQRPRLLIYGASTLASGVPDRFSGSGSGTDFTLTISRLEPEDFAVYYCAGGYSSSDAHVFGGGTKVEIK
- Kd (human Ly6G6D polypeptide): 1.3 nM

B5: hu6E10.K3-20.V3-48 (antibody, V domains shown)
VH: EQQLVESGGGLVQPGGSLRLSCAVSGLSLSTNSINWVRQAPGKGLEWIGYIYHGDGIADYASWAKGRFTISKDSAKNSVYLQMNSLRAEDTAVYFCASGAGYSLFTLWGPGTLVTVSS
VL: EAVLTQSPGTLSLSPGERATLSCQSSESVWHNNWLAWFQQKPGQRPRLLIYGASTLASGVPDRFSGSGSGTDFTLTISRLEPEDFAVYYCAGGYSSSDAHVFGGGTKVEIK
- Kd (human Ly6G6D polypeptide): 1.3 nM

B7: hu6E10.K1-5.V4-4 (antibody, V domains shown)
VH: EQQLQESGPGLVKPPGTLSLTCAVSGLSLSTNSINWVRQPPGKGLEWIGYIYHGDGIADYASWAKGRFTISKDSSKTQVSLKLSSVTAADTAVYFCASGAGYSLFTLWGPGTLVTVSS
VL: DAQLTQSPSTLSASVGDRVTITCQSSESVWHNNWLAWFQQKPGKRPKLLIYGASTLASGVPSRFSGSGSGTEFTLTISSLQPDDFATYYCAGGYSSSDAHVFGGGTKVEIK
- Kd (human Ly6G6D polypeptide): 3.34 nM

B9: hu6E10.K1-5.V3-53 (L1H1) (antibody, V domains shown)
VH: EQQLVESGGGLIQPGGSLRLSCAVSGLSLSTNSINWVRQAPGKGLEWIGYIYHGDGIADYASWAKGRFTISKDSSKNTVYLQMNSLRAEDTAVYFCASGAGYSLFTLWGPGTLVTVSS
VL: DAQLTQSPSTLSASVGDRVTITCQSSESVWHNNWLAWFQQKPGKRPKLLIYGASTLASGVPSRFSGSGSGTEFTLTISSLQPDDFATYYCAGGYSSSDAHVFGGGTKVEIK
- Kd (human Ly6G6D polypeptide): 1.63 nM

B10: hu6E10.K1-5.V3-48 (antibody, V domains shown)
VH: EQQLVESGGGLVQPGGSLRLSCAVSGLSLSTNSINWVRQAPGKGLEWIGYIYHGDGIADYASWAKGRFTISKDSAKNSVYLQMNSLRAEDTAVYFCASGAGYSLFTLWGPGTLVTVSS
VL: DAQLTQSPSTLSASVGDRVTITCQSSESVWHNNWLAWFQQKPGKRPKLLIYGASTLASGVPSRFSGSGSGTEFTLTISSLQPDDFATYYCAGGYSSSDAHVFGGGTKVEIK
- Kd (human Ly6G6D polypeptide): 1.03 nM

B11: hu6E10.K3-20.V4-4 (antibody, V domains shown)
VH: EQQLQESGPGLVKPPGTLSLTCAVSGLSLSTNSINWVRQPPGKGLEWIGYIYHGDGIADYASWAKGRFTISKDSSKTQVSLKLSSVTAADTAVYFCASGAGYSLFTLWGPGTLVTVSS
VL: EAVLTQSPGTLSLSPGERATLSCQSSESVWHNNWLAWFQQKPGQRPRLLIYGASTLASGVPDRFSGSGSGTDFTLTISRLEPEDFAVYYCAGGYSSSDAHVFGGGTKVEIK
- Kd (human Ly6G6D polypeptide): 3.11 nM

B12: LY6G6D (other)
chain: NRMRCYNCGGSPSSSCKEAVTTCGEGRPQPGLEQIKLPGNPPVTLIHQHPACVAAHHCNQVETESVGDVTYPAHRDCYLGDLCNS
- Kd (Chimeric 1G4): 2.7 nM
- Kd (SNA): 0.27 nM
- Kd (ANT): 0.26 nM
- Kd (QNV): 0.22 nM
- Kd (NNA): 0.26 nM
- Kd (NNV): 0.22 nM
- Kd (SNT): 0.25 nM
- Kd (Parental NNT): 0.43 nM
- Kd (GNT): 0.34 nM
- Kd (QNT): 0.28 nM
- Kd (SNV): 0.23 nM

B13: Ly6G6D (other)
chain: NRMRCYNCGGSPSSSCKEAVTTCGEGRPQPGLEQIKLPGNPPVTLIHQHPACVAAHHCNQVETESVGDVTYPAHRDCYLGDLCNS
- Kd (SA): 2.74 nM
- Kd (SS): 2.7 nM
- Kd (IS): 1.26 nM

B14: Ly6G6D (Fc fusion)
chain: NRMRCYNCGGSPSSSCKEAVTTCGEGRPQPGLEQIKLPGNPPVTLIHQHPACVAAHHCNQVETESVGDVTYPAHRDCYLGDLCNS
- Kd [3]: 0.0335 nM
- Kd [4]: 0.105 nM
- Kd [5]: 0.122 nM
- Kd (4H7): 0.36 nM

Other lines, results leading:

- Kd (human LY6G6D-Fc [1]): 0.704 nM
B1: rb20A12.IA (C35I-C50A) chimeric Fab (Fab, V domains shown)
VH: QQQLEESGGDLVKPGASLTLTCTASGFDFVNNAMIWVRQAPGKGLEWIAALSFADNTAYYATWASGRFTISKISSTTVTLRMTSLTGADTATYFCMRGDLWGPGTLVTVSS
VL: DIVMTQTPSSVSAAVGGTVTINCQASESITRYLNWYQQKPGQPPKLLIYDASKLPSGVPSRFKGSGSGTQFTLTTSDLECADAATYYCQSTSFRGRSYNNTFGGGTEVVVK

- Kd (human Ly6G6D polypeptide): 1.66 nM
B4: hu6E10.K4-1.V3-53 (antibody, V domains shown)
VH: EQQLVESGGGLIQPGGSLRLSCAVSGLSLSTNSINWVRQAPGKGLEWIGYIYHGDGIADYASWAKGRFTISKDSSKNTVYLQMNSLRAEDTAVYFCASGAGYSLFTLWGPGTLVTVSS
VL: DAVLTQSPDSLAVSLGERATINCQSSESVWHNNWLAWFQQKPGQRPKLLIYGASTLASGVPDRFSGSGSGTDFTLTISSLQAEDVAVYYCAGGYSSSDAHVFGGGTKVEIK

- Kd (human Ly6G6D polypeptide): 1.41 nM
B6: hu6E10.K4-1.V3-48 (antibody, V domains shown)
VH: EQQLVESGGGLVQPGGSLRLSCAVSGLSLSTNSINWVRQAPGKGLEWIGYIYHGDGIADYASWAKGRFTISKDSAKNSVYLQMNSLRAEDTAVYFCASGAGYSLFTLWGPGTLVTVSS
VL: DAVLTQSPDSLAVSLGERATINCQSSESVWHNNWLAWFQQKPGQRPKLLIYGASTLASGVPDRFSGSGSGTDFTLTISSLQAEDVAVYYCAGGYSSSDAHVFGGGTKVEIK

- Kd (human Ly6G6D polypeptide): 3.6 nM
B8: hu6E10.K4-1.V4-4 (antibody, V domains shown)
VH: EQQLQESGPGLVKPPGTLSLTCAVSGLSLSTNSINWVRQPPGKGLEWIGYIYHGDGIADYASWAKGRFTISKDSSKTQVSLKLSSVTAADTAVYFCASGAGYSLFTLWGPGTLVTVSS
VL: DAVLTQSPDSLAVSLGERATINCQSSESVWHNNWLAWFQQKPGQRPKLLIYGASTLASGVPDRFSGSGSGTDFTLTISSLQAEDVAVYYCAGGYSSSDAHVFGGGTKVEIK
